Results from the supplement of paper PMC12042874.
± gives the uncertainty stated by the source.

Assay: amyloid nucleation score (Sup35N fusion, yeast selection) (log enrichment); library NNK2; higher = more nucleation; inactive = no reads after selection
In short: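 The nucleation score, computed with DiMSum, is the log enrichment of output over input reads, centred on the mode score of non-aggregating sequences. Sequences with under 100 input reads were dropped. Reads were generated by Illumina sequencing of plasmid inserts from psi-negative yeast with Sup35N fused to peptides of 20 random codons, induced with 100 μM copper sulfate for 24 hours and grown 7 days at 30°C on medium lacking adenine and uracil.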

Substance | amyloid nucleation score
LQTQFTAVC | 0.27 ± 0.22
INISCLKVGALSKGTRLFR | 2.14 ± 0.068
AFVNVVGLVYSF | -1.42 ± 0.45
STWCRMANYLITCFVTKSRV | -1.33 ± 1.1
NITSSNRGVSFEETGVNAGI | inactive
SGKTMEVIYNEGSCFCGFLT | 8.09 ± 0.081
IRDRPHWAGGHLGWPYMWS | 4.1 ± 0.1
LLLCGNSRGQDEASSIVFTM | 0.726 ± 0.66
NNLLRYSVFNI | inactive
YVFLWWLKFCFGYH | inactive
RPLPSFPNNRSERSNTSF | 0.851 ± 0.57
FMGSSIGLSSCPLEDTYVLP | -0.403 ± 1
VWLTMKVAILPCSQRIEKMV | 1.47 ± 0.38
TNKYLVGSILYLFKHGWLGV | 0.067 ± 0.55
FWGGDLRACSCGQGIEFAGR | 3.7 ± 0.14
DIERQAVNRPVGRLGKTEDS | 0.242 ± 0.77
SSRRGNDGWRCGPSCGGCTG | 3.65 ± 0.082
CLWSSNSSSIWDIGRYFRR | -1.21 ± 0.31
WLIKKASRYSN | -0.608 ± 1.1
LIEFAFVQFCNIVIEP | 7.102 ± 0.031
VVSGTLKKMGVFGTSAIISE | 0.494 ± 0.8
RSHVVH | 1.18 ± 0.68

Substance | amyloid nucleation score
HLWVWFRYSSRSFSHMLGDC | 2.92 ± 0.15
RDIRWIYEDTLISSGIWRSL | 2.62 ± 0.11
QSYMSGKYVVLVQRGEVFSF | -1.21 ± 0.49
TSQQRAYITP | -0.703 ± 1
GCRRISFKSHISGVEGTNGG | 1.2 ± 0.43
DGPWGSMDTRYNSS | 0.479 ± 0.74
ECLKYRYSFFNWTSTSVFHA | -0.435 ± 0.79
SSSVDRTVHPLCYGFSLRRD | -0.168 ± 0.28
DASMQF | 0.797 ± 0.57
QNKSIDSHAVGGIRVDDYRR | -0.088 ± 0.31
RSFSSPRIILYVKLLVSLYG | -0.783 ± 0.25
LNDWNFLVMVHISIVIRILF | inactive
EIVLFFCPVVKCME | 3.08 ± 0.098
VYYASDNWYLAYRWEGRRFN | 0.821 ± 0.27
TWSIYAHH | 0.952 ± 0.58
AVSVAVLRHLEVRRKVWS | 1.66 ± 0.15
VWLGVTSSPIIMSKNMSNVV | 0.404 ± 0.36
ASTSLMVN | 0.052 ± 0.46
CRSTGIDIIYYHISFFLYIW | inactive
WCRAWGDFIMVKSLGLKCIA | -0.1 ± 0.49
ICIFHDWVIIICCSIRMRCL | -0.823 ± 0.63
VIKKQCCHTYSVLTFRILNC | 0.151 ± 0.63

Substance | amyloid nucleation score
RLGSRGSLSFYVHLTCWVEV | -0.27 ± 0.79
LYHPACSAFSRSFCVKFLYW | -0.837 ± 0.61
STMWTIGSWLKAGALSFGFL | -0.441 ± 0.36
YKWWDLCLNFPCGRLKAQPR | 1.28 ± 0.25
LALFALMLLLF | -0.055 ± 0.26
NFDGSCKA | -0.853 ± 1.1
LLPSLWV | -0.437 ± 0.63
LSRKTYWA | 0.894 ± 0.43
FYLSLLYGRSRQIGLLIYFQ | 0.974 ± 0.15
KVVGGLVLHGSL | inactive
FLFNVSGLYIGWSLVPTNLD | -0.33 ± 0.76
IGILSREGYWGGNRFLGYQL | -1.32 ± 0.62
QAGALFDKRQGLRYGWVVSM | -0.641 ± 0.41
YLSLVKSPLSSLNSFWTWM | -0.348 ± 0.23
ESTLRVMGRKAISSGLMCIA | 0.269 ± 0.28
EDRVCAYLNRKYCRYLGHSM | 1.29 ± 0.35
LLRSEVGDLILPCVLERCRP | 1.13 ± 0.36
ARVALRLIYDMDRVLWPDSY | 5 ± 0.067
GSYYCIDVGASRRPVWILSA | 0.855 ± 0.48
LSAVWLWVNFFQHMTNRC | -1.71 ± 0.76
YTAFLFICTRALLMPDMKFL | inactive
HAGMIYILYVNLRRTSKRMG | 3.86 ± 0.072

Substance | amyloid nucleation score
EISAMVAL | -1.06 ± 0.54
VIPYILTCWVYFIDCLWRRK | 0.948 ± 0.66
LKMSHIYCSIIITAYLNWLV | inactive
TLELLIMD | 0.385 ± 0.33
SWRTWISRCYFTLDDVSKTA | 0.181 ± 0.43
KERNRRAEAGSYNYVGVWVT | 0.951 ± 0.81
IFYSSLALVWLYNLMDRECT | 2.18 ± 0.17
CVFASNKRMEGVDKKLRVRN | 0.403 ± 0.62
CASRC | 4.11 ± 0.06
GRSGVLLQRGGFVKNSRCEK | 0.026 ± 1.1
ISGAL | 0.203 ± 0.45
NFKTI | inactive
NGPVQIASGGRRVPLLWEVL | 0.098 ± 0.79
VLVLDR | 3.46 ± 0.073
LLYQKKDEWLGASYSLQKLS | -0.686 ± 0.37
IGTMVEREKL | 0.299 ± 0.39
EILLR | 0.269 ± 0.8
FEWSTGCG | inactive
NVWNLQLYPTATCAKYNGAV | 4.13 ± 0.045
MRLLILDPYAREQ | inactive
